{"source": "patent US20090011510A1", "target": "intracellular product of the soybean Rps1b gene (soybean)", "assay": "cell-based or functional assay", "data": [{"substance": "mature Avr1b (lacking the secretory leader), Phytophthora sojae", "values": [{"measurement": "Killing in presence of Rps1b (ratio of GUS spots)", "result": 0.22}]}]}
